This assay addresses SoP450 from Shimazuella soli (CPR-containing self-sufficient cytochrome P450, homologue of P450BM3) (Shimazuella soli). As to the kind of experiment: SEC.

As for “SoP450 from Shimazuella soli (CPR-containing self-sufficient cytochrome P450, homologue of P450BM3) (enzyme)”, the stoichiometry N (in general, a count of units in the complex or per binding partner) was found to be 2.

The record behind these values is article doi:10.1101/2025.11.29.689641.
